Laboratory results as given in article PMC8078012 (Cell systems, 2020).

Biological target: MBP-GSK3β-HA-His (human, UniProt P49841 1-420, phosphotyrosine at 216 (activation loop))
Assay: BLI

Chain of MBP-GSK3β-HA-His (P49841 whole entry): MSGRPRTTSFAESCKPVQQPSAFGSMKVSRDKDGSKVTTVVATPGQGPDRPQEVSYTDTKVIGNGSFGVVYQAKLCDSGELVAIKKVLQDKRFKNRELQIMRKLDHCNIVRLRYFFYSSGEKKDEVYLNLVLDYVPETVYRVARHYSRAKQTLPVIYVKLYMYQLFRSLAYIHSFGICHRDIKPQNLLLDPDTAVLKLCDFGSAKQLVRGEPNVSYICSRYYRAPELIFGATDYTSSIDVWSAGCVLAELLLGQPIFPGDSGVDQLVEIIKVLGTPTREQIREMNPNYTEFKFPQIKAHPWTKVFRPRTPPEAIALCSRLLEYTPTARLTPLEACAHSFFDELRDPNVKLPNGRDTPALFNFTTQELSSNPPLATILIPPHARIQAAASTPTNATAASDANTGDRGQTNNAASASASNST

B1: MBP-Axin_(384-518)-His (miniAxin) (domain or fragment, human, UniProt O15169-2 384-518, looked up)
chain: EPQKFAEELIHRLEAVQRTREAEEKLEERLKRVRMEEEGEDGDPSSGPPGPCHKLPPAPAWHHFPPRCVDMGCAGLRDAHEENPESILDEHVQRVLRTPGRQSPGPGHRSPDSGHVAKMPVALGGAASGHGKHVP
modifications: biotin (NHS-PEG4-biotin, molar coupling ratio 1:1) where it was immobilised (assay with GSK3β)
Question: With B1 as the binder, how does the Kd read?
Answer: 16 nM
